According to US20200093922A1 (AGENCY FOR SCIENCE TECHNOLOGY AND RESEARCH, published 2020):

Key:
[1] = target: T1, human PD-L1 coupled to human Fc (human, UniProt Q9NZQ7 19-239, limits assumed); assay: SPR (Proteon XPR36), human PD-L1-Fc immobilised, crude H12 Fab extract flowed
T1 construct: also called human PD-L1-Fc; not shown: human Fc

[2] = target: T2, murine PD-L1 coupled to human Fc (murine, UniProt Q9EP73 19-238, limits assumed); assay: SPR (Proteon XPR36), mouse PD-L1-Fc immobilised, crude H12 Fab extract flowed
T2 construct: also called murine PD-L1-Fc; mouse PD-L1 coupled to Fc; not shown: human Fc
T2 sequence (Q9EP73 19-238 limits assumed): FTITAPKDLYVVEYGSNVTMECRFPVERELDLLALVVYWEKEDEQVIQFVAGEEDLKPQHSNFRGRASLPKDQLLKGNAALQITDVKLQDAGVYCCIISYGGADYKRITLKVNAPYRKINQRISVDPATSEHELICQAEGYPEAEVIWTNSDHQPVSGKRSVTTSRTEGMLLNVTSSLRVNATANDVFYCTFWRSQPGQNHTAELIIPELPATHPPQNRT

[3] = target: T1, human PD-L1 coupled to human Fc; assay: SPR, Proteon XPR36, human PD-L1-Fc immobilised, crude H12 Fab extract flown over
[4] = target: T2, murine PD-L1 coupled to human Fc; assay: SPR, Proteon XPR36, murine PD-L1-Fc immobilised, crude H12 Fab extract flown over
[5] = target: biotinylated human PD-L1 (human, UniProt Q9NZQ7 19-238, limits assumed, biotinylated (site not stated)); assay: blocking ELISA: biotinylated human PD-L1 pre-incubated with Fab, then added to coated human PD-1-Fc (blocked partner), streptavidin-HRP
Sequence of biotinylated human PD-L1 (Q9NZQ7 19-238 limits assumed): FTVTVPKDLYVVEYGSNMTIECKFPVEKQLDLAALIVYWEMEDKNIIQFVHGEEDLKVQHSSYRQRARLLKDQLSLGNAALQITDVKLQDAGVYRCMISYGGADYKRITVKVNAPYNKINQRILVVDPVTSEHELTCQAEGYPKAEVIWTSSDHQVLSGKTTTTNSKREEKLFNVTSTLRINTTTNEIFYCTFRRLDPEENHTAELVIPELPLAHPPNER

[6] = target: biotinylated murine PD-L1 (murine, UniProt Q9EP73 19-238, limits assumed, biotinylated (site not stated)); assay: blocking ELISA: biotinylated murine PD-L1 pre-incubated with Fab, then added to coated murine PD-1-Fc (blocked partner), streptavidin-HRP
Sequence of biotinylated murine PD-L1 (Q9EP73 19-238 limits assumed): as the sequence (Q9EP73 19-238 limits assumed) above

T1 sequence (Q9NZQ7 19-239 limits assumed): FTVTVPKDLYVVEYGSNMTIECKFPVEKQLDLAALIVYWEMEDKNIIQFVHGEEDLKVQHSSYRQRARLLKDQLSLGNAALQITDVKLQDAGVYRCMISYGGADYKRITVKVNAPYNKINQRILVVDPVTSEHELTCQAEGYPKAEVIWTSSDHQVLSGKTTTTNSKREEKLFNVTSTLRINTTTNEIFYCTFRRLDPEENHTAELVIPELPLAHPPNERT

B1: anti-PD-L1 antibody clone H12, Fab format (Fab, V domains shown)
VH: EVQLVQSGAEVKKPGASVKVSCKASGGTFSSYAISWVRQAPGQGLEWMGRIIPILGIANYAQKFQGRVTITADKSTSTAYMELSSLRSEDTAVYYCARSGHGYSYGAFDYWGQGTL
VL: QSVLTQPPSVSGAPGQRVTISCTGSSSNIGAGYDVHWYQQLPGTAPKLLIYGNSNRPSGVPDRFSGSKSGTSASLAITGLQAEDEADYYCQSYDSSLSGSYVVFGGGTKLTVL
notes: Tested as Fab; the SPR used a crude Fab extract; also called crude H12 Fab extract
B1 was tested, and the Kd [1] was 0.313 nM, the Kd [2] was 3.04 nM and the koff [3] was 0.000471 s⁻¹. It also gave a kon [3] of 1.5e+06 M⁻¹ s⁻¹, a koff [4] of 0.00407 s⁻¹ and a kon [4] of 1.34e+06 M⁻¹ s⁻¹. For the same binder, the “IC50 (read off the curve)” value [5] was roughly 20 nM and the “IC50 (read off the curve)” value [6] was roughly 4 nM.
